Results from patent US20120115880A1.

Molecular target: p53 (endogenous wild-type p53 of human retinoblastoma cells and human fetal retinal cells) (human) (UniProt P04637)
Assay: cell-based or functional assay

Sequence of p53 (endogenous wild-type p53 of human retinoblastoma cells and human fetal retinal cells) (human) (P04637 whole entry): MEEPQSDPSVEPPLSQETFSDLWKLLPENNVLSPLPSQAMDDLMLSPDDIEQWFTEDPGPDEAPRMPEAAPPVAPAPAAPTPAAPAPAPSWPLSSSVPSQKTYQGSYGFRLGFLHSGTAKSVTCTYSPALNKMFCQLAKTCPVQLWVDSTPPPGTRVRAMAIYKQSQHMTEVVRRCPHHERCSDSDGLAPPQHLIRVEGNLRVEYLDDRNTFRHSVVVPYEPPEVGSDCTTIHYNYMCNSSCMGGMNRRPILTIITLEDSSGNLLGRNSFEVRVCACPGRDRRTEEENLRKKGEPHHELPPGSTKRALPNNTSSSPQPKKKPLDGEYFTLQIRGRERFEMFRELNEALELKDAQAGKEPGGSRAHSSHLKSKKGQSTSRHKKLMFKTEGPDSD

luciferase activity of the p53 reporter construct PG13 in retinoblastoma (Y79) cells: 19 fold
Substance: MDMX (ectopically expressed from the FLAG-tagged MDMX cDNA)
